Experimental data: US8822407B2, “Preparation of conjugates comprising adenine derivatives and allergenic proteins and their use for specific immunotherapy of allengenic diseases” (Universita' Degli Studi di Firenze, priority 2010, dated 2014)

B1: nDer p2: purified natural allergen Der p2, major allergen from the house dust mite Dermatophagoides pteronyssinus (protein, UniProt P49278 18-146, looked up)
Mite group 2 allergen Der p 2: DQVDVKDCANHEIKKVLVPGCHGSEPCIIHRGKPFQLEAVFEANQNTKTAKIEIKASIDGLEVDVPGIDPNACHYMKCPLVKGQQYDIKYTWNVPKIAPKSENVVVTVKVMGDDGVLACAIATHAKIRD
modifications: natural purified
notes: purified natural allergen Der p2, major allergen from the house dust mite Dermatophagoides pteronyssinus

Key:
Format in all cases: cell-based, human
purified B cells = test: B cell activation (tritiated thymidine incorporation); settings: for Stimulation index (mean ± SE): B cell proliferation
Description: Circulating mononuclear cells (MNC) are isolated by Ficoll-Hypaque density gradient from buffy coats of healthy donors (Servizio Immunotrasfusionale e terapie cellulari, Azienda Ospedaliero Universitaria Pediatrica A. Meyer, Firenze). 200×10^6 MNC are then separated using the commercial CD19 isolation kit (Miltenyi) by the addition of 400 μl iron microbead-bound anti-CD19 monoclonal antibody followed by magnetic separation on LS column. 20×10^6 B cells are isolated by positive selection and are extensively washed by the use of calcium- and magnesium-free PBS and cultured in triplicates at the concentration of 1×10^6/ml/well in complete medium plus 10% foetal calf serum in 96-U plates. […] Plates are incubated in humidified atmosphere at 37° C. for 72 hrs and at the end 0.5 μCi tritiated thymidine is added to each well for further 16 hrs. The incorporated radioactivity is measured as already described in step (f) of Example 4.

[1] = system: NF-κB p50 subunit in purified CD14+ cells; test: NF-κB activation: nuclear p50 in purified CD14+ cells; settings: 2 hrs, allergens and conjugates 10 μg/ml, R-848 2 μg/ml
Description: The tubes are then incubated for 2 hrs in 5% CO2 humidified atmosphere at 37° C. and then washed with 10 ml PBS, centrifuged at 1500 rpm repeating the treatment thrice and the cellular pellet finally dried by the use of a micropipette and stored at −80° C. up to the assay. […] Two different protein amounts (0.5 and 2 μg) were incubated in 96w plates coated by the immobilized oligonucleotide containing the activated NF-κB consensus site (5′-[…]-3′), followed by the incubation with an antibody recognizing an epitope of the NF-κB p50 subunit. An HRP-conjugated secondary antibody was added to single wells and the colorimetric read-out was quantified by spectrophotometry. Values are reported as Optical Density. […] For the specificity of the assay, a wild-type consensus oligonucleotide was used as a competitor for NF-κB binding.

[2] = system: allergen-specific T cell clones; test: Functional phenotype of allergen-specific T cell clones; settings: for Clonal Efficiency (%): T cell lines derived in the presence of the stimulus
Source text: For the functional analysis of T cell clones specific for nDer p2 and nDer p2-con j, T cell lines are initially derived from MNC of two atopic donors (G. E. and M. A.) affected by bronchial asthma and allergic rhinitis and sensitized to Dermatophagoides pteronyssinus, in the presence of nDer p2- or its respective conjugate nDer p2-conj. […] 28 allergen-specific T cell clones are obtained from T cell lines specific for nDer p2 from donor two and 37 from donor one whereas 28 clones are obtained from T cell lines derived in the presence of nDer p2-conj from both donors.
The allergen-specific clones obtained in the different experimental conditions have been then assessed for their ability to produce IL-4 ([…]) and IFN-gamma (pg/ml) in the culture supernatants after polyclonal stimulation with PMA and anti-CD3 monoclonal antibody.

CRTH2 cells = test: Phenotype of allergen-specific CRTH2 cells; settings: allergen 10 μg/ml, PMA and ionomicin
Description: Mononuclear cells from peripheral blood (MNC) are isolated by density gradient (Ficoll-Hypaque) using buffy coats from Dermatophagoides pteronyssinus-sensitized donors (Servizio Immunotrasfusionale e terapie cellulari, Azienda Ospedaliero Universitaria Pediatrica A. Meyer, Firenze). 500×10^6 MNC are separated by the addition of 500 μl anti-CRTH2 monoclonal antibody for 20 min at room temperature, then extensively washed and incubated again with a secondary polyclonal antibody bound to iron microbeads and finally positively selected on a magnetic column (LS column). 10×10^6 cells are recovered by positive selection, extensively washed with sterile calcium and magnesium-free PBS buffer and cultured at the concentration 1×10^6/ml/well in complete medium plus 5% human AB serum in 24-flat bottomed plates. As stimulants, unconjugated allergens (DP or nDer p2) or conjugates (DP-conj or nDer p2-conj) (all at 10 μg/ml) have been used. Cultures have been incubated for 6 days at 37° C. in 5% CO2 humidified atmosphere and further expanded with rIL-2 25 UI/ml until 14 days when T cell blasts are collected, extensively washed, counted, adjusted at 1×10^6/ml concentration and polyclonally stimulated with PMA and ionomicin as already described to assess the intracellular production of IL-4 and IFN-gamma.

Molecule | proliferation of purified B lymphocytes (in words) (purified B cells; thymidine incorporation) | p50 nuclear expression (NF-κB activation) [1] | Clonal Efficiency (%) ([2]; Donor one) | Clonal Efficiency (%) ([2]; Donor two) | clones producing IL-4 alone ([2]; donor one, PMA and anti-CD3) [%] | clones producing IL-4 together with IFN-gamma (TH0 phenotype) ([2]; donor one, PMA and anti-CD3) [%] | clones able to produce IL-4 alone or together with IFN-gamma ([2]; donor two, PMA and anti-CD3) [%] | % of cells expressing IFN-gamma+ (CRTH2 cells; Donor #3, CRTH2 cells) [%] | % of cells expressing IL-4+ (CRTH2 cells; Donor #3, CRTH2 cells) [%] | % of cells expressing IL-4+ IFN-gamma+ (CRTH2 cells; Donor #3, CRTH2 cells) [%] | % of cells expressing IFN-gamma+ (CRTH2 cells; Donor #4, CRTH2 cells) [%] | % of cells expressing IL-4+ (CRTH2 cells; Donor #4, CRTH2 cells) [%] | % of cells expressing IL-4+ IFN-gamma+ (CRTH2 cells; Donor #4, CRTH2 cells) [%] | Stimulation index (mean ± SE) (purified B cells; concentration 0.5 μg/ml) | Stimulation index (mean ± SE) (purified B cells; concentration 2.5 μg/ml) | Stimulation index (mean ± SE) (purified B cells; concentration 10 μg/ml)
CCOCc1nc2c(N)nc3ccccc3c2n1CC(C)(C)O [Conj R-848, reference compound] | high levels of incorporation of radioactive thymidine |  |  |  |  |  |  |  |  |  |  |  |  |  |  | 
Nc1nc(SCCCC(=O)ON2C(=O)CCC2=O)nc2c1nc(O)n2Cc1ccccc1 [SA-26E, 4-(6-Amino-9-benzyl-8-hydroxy-9H-purin-2-ylsulfanyl)-butyric acid 2,5-dioxo-pyrrolidin-1-yl ester] |  | completely inactive |  |  |  |  |  |  |  |  |  |  |  |  |  | 
B1 |  | inactive | 30 | 24 | 56.7 | 29.7 | 75 | 5.8 | 47.6 | 1.3 | 2.0 | 78.2 | 2.3 | 1.6 ± 0.4 | 1.7 ± 0.2 | 1.7 ± 0.1
